We go through 3 proteins from article PMC4691284 (Developmental cell, 2015).

A word on the stoichiometry N: it is the number of molecules, sites or subunits per partner or assembly.

The series concerns the molecule itself. The series can be described thus: AUC.

B1: FCHSD2 F-BAR domain (domain or fragment, human, UniProt O94868 8-282, looked up)
chain: VKVTQELKNIQVEQMTKLQAKHQAECDLLEDMRTFSQKKAAIEREYAQGMQKLASQYLKRDWPGVKADDRNDYRSMYPVWKSFLEGTMQVAQSRMNICENYKNFISEPARTVRSLKEQQLKRCVDQLTKIQTELQETVKDLAKGKKKYFETEQMAHAVREKADIEAKSKLSLFQSRISLQKASVKLKARRSECNSKATHARNDYLLTLAAANAHQDRYYQTDLVNIMKALDGNVYDHLKDYLIAFSRTELETCQAVQNTFQFLLENSSKVVRDYN
With B1, the “stoichiometry N” value is above 2 dimers.

B2: Gas7 F-BAR domain (domain or fragment, human, UniProt O60861 196-456, looked up)
chain: TEWSYCDYFWADKKDPQGNGTVAGFELLLQKQLKGKQMQKEMSEFIRERIKIEEDYAKNLAKLSQNSLASQEEGSLGEAWAQVKKSLADEAEVHLKFSAKLHSEVEKPLMNFRENFKKDMKKCDHHIADLRKQLASRYASVEKARKALTERQRDLEMKTQQLEIKLSNKTEEDIKKARRKSTQAGDDLMRCVDLYNQAQSKWFEEMVTTTLELERLEVERVEMIRQHLCQYTQLRHETDMFNQSTVEPVDQLLRKVDPAKD
B2: the “stoichiometry N” value is above 2 dimers.

B3: FCHSD1 F-BAR domain (domain or fragment, human, UniProt Q86WN1 12-282, looked up)
chain: QEVKLRFLEQLSILQTWQQREADLLEDIRSYSKQRAAIEREYGQALQKLAGPFLKREGHRSGEMDSRGRTVFGAWRCLLDATVAGGQTRLQASDRYRDLAGGTGRSAKEQVLRKGTENLQRAQAEVLQSVRELSRSRKLYGQRERVWALAQEKAADVQARLNRSDHGIFHSRTSLQKLSTKLSAQSAQYSQQLQAARNEYLLNLVATNAHLDHYYQEELPALLKALVSELSEHLRDPLTSLSHTELEAAEVILEHAHRGEQTTSQVSWEQD
Turning to B3, the “stoichiometry N” value is above 2 dimers.
